Results reported in patent publication US11421026B2, “Antibodies that bind human cannabinoid 1 (CB1) receptor” (BIRD ROCK BIO, Inc., priority 2015, dated 2022).

B1: PA13R3-P1C4: phage-derived chimeric anti-CB1 IgG; HC variable SEQ ID NO: 2, LC variable SEQ ID NO: 6 (antibody, V domains shown)
VH: EVQLQQSGAELVRPGVSVKISCKASGYEFSYYWMNWVKQRPGQGLEWIGQIYPGDGETKYNGKFKGKATLTADKSSNTAYMQLSSLTSEDSAVYFCARSHGNYLPYWGQGTLVTVSA
VL: DIVLTQSPAIMSASLGERVTMTCTASSSVSSSYLHWYQQKPGSSPKLWIYSTSNLASGVPARFSGSGSGTSYSLTISSMEAEDAATYYCHQYHRSPPTFGAGTKLELK
modifications: PA13R3-P1C4 Heavy chain variable region; PA13R3-P1C4 Light chain variable region
B2: PA13R3-P1C4 Fab: Fab fragment of chimeric PA13R3-P1C4 (antibody, V domains shown)
VH: EVQLQQSGAELVRPGVSVKISCKASGYEFSYYWMNWVKQRPGQGLEWIGQIYPGDGETKYNGKFKGKATLTADKSSNTAYMQLSSLTSEDSAVYFCARSHGNYLPYWGQGTLVTVSA
VL: DIVLTQSPAIMSASLGERVTMTCTASSSVSSSYLHWYQQKPGSSPKLWIYSTSNLASGVPARFSGSGSGTSYSLTISSMEAEDAATYYCHQYHRSPPTFGAGTKLELK
B3: 36E12B6C2: hybridoma-derived anti-CB1 mAb; HC variable SEQ ID NO: 18, LC variable SEQ ID NO: 22 (antibody, listed as Mus sp., V domains shown)
VH: QVQLQQSGAELVRPGSSVKISCKASGYEFSYYWMNWVKQRPGQGLQWIGQIYPGDGDTNYNGKFKGKATLTADKSSSTAYMHLTSLTSEDSAVYFCARSGGNPFAFWGQGTLVTVSA
VL: DIQMTQTSSSLSASLGDRVTFSCRASQDISNYLNWYQQKPDGTVKLLIYYTSRLHSGVTSRFRGSGSGTDYSLTISNLEQEDVATYFCQQGHTLPWSFGGGTKLEIK

Legend:
[1] = tested on: CB1 receptor signaling, WIN55,212 induced ERK phosphorylation in Trex-CHO CB1 receptor cells; assay: ERK activation assay (western blot); type: cell-based, human; conditions: IgG 300 nM; WIN55,212 100 nM, 10 and 15 minutes
Experimental: Two days before the experiment, Trex-CHO CB1 receptor cells were seeded at 500,000 cells/well into 6-well plates. 1 μg/mL tetracycline was used to induce CB1 receptor expression after 24 hours. Cells were serum starved for at least two hours before the experiment. […] Cell lysates were harvested and the level of ERK activation was determined by western blot. Anti-ERK and Anti-phospho-specific ERK antibodies were obtained from Cell Signaling Inc.
Two days before the experiment, Trex-CHO CB1 receptor-expressing cells were seeded at 500,000 cells/well into 6-well plates. 1 μg/mL tetracycline was used to induce CB1 receptor expression after 24 hours. Cells were serum starved for at least two hours before the experiment. […] Cell lysates were harvested and the level of ERK activation was determined by western blot. Anti-ERK and Anti-phospho-specific ERK antibodies were obtained from Cell Signaling Inc.

[2] = tested on: denatured CB1 protein (His tagged, N/C-termini truncated human CB1); assay: Western blot recognition of denatured CB1 protein; type: binding; conditions: 2 μg/mL
Experimental: A study was performed to examine whether PA13R3-P1C4 and its humanized variant antibodies recognize epitope(s) on denatured CB1 protein (His tagged, N/C-termini truncated CB1) by western blot analysis. Purified human CB1 protein (750 ng per lane) was mixed with SDS reducing buffer containing beta-mercaptoethanol (Double Helix). […] Membranes were blocked with 5% NFDM/PBS-T for one hour at 22° C. followed by immune-blotting with test antibodies (2 μg/mL) in 5% NFDM/PBS-T overnight at 4° C. Commercial mouse anti-His antibody and mouse anti-CB1 antibody (R&D Systems) were used as positive controls, and rabbit anti-CB1 antibody (Cayman), which recognizes a C-terminal region that was deleted from the recombinant CB1 protein used in this study, served as a negative control.
After overnight incubation, membranes were washed with 0.5% Tween-20 PBS (PBS-T) three times at 22° C. Secondary antibodies AP-conjugated anti-human IgG (1:5000) or anti-mouse IgG or anti-rabbit IgG in 5% NFDM/PBS-T were added to respective membranes and incubated for 1 hour at 22° C. Membranes were washed three times with PBS-T each for 5 minutes. After the final wash, signal was developed by incubating with NBT/BCIP substrate solution at 22° C. and the reaction was stopped by washing the membrane under running water.

[3] = target: T1, CB1 (TRex-CHO cells stably expressing human CB1) (Homo sapiens, UniProt P21554); type: cell-based
T1 construct: pcDNA4/TO native full length human CB1 receptor construct was transfected into tetracycline inducible system Trex-CHO and Trex-293 cells; expressed in transfected cells
Experimental: A cAMP functional assay was performed to measure the antagonism of the antibodies. […] Data analysis was performed using GraphPad Prism.
Cell numbers, forskolin concentration and CP55,940 concentration were optimized according to the manufacturer's instructions. The cAMP antagonist functional assay was performed in white 384-well low volume plates (Greiner). […] Data analysis was performed using GraphPad Prism.
Data analysis was performed using GraphPad Prism. The mean±SD of IC50s and dissociation constants (Kd) shown were measured from at least 2 different experiments.
After 30 minutes incubation at 22° C., 5 μL cAMP-d2 and 5 μL anti-cAMP cryptate were added to the cells and incubated for 1 hour. […] Data analysis was performed using GraphPad Prism.

[4] = target: T2, human CB1 expressing TRex-CHO cells (Homo sapiens, UniProt P21554); type: cell-based; conditions: forskolin stimulated TRex-CHO CB1 cells
T2 construct: pcDNA4/TO native full length human CB1 receptor construct was transfected into tetracycline inducible system Trex-CHO and Trex-293 cells; expressed in transfected cells
Experimental: Data analysis was performed using GraphPad Prism software.
Data analysis was performed using GraphPad Prism.

[5] = target: T3, CB1 surface expression (CB1 TRex-CHO / TRex-293 cells) (Homo sapiens, UniProt P21554); type: cell-based; conditions: tetracycline induced, humanized variants
T3 construct: pcDNA4/TO native full length human CB1 receptor construct was transfected into tetracycline inducible system Trex-CHO and Trex-293 cells; expressed in transfected cells; tetracycline induced

[6] = target: CB1 receptor (TRex-CHO CB1 cells) (Homo sapiens, UniProt P21554); assay: Flow cytometry binding of P1C4 Fab
Experimental: To determine PA13R3-P1C4 Fab binding affinity, full binding curves were generated on CB1 receptor by testing a range of concentrations using TRex-CHO cells stably transfected with tetracycline inducible CB1 expression construct by flow cytometry. Three-fold serial dilutions from 3 μM to 0.1 μM were prepared. FITC-conjugated anti-human antibody was used to detect PA13R3-P1C4 Fab.

T1 sequence (P21554 whole entry): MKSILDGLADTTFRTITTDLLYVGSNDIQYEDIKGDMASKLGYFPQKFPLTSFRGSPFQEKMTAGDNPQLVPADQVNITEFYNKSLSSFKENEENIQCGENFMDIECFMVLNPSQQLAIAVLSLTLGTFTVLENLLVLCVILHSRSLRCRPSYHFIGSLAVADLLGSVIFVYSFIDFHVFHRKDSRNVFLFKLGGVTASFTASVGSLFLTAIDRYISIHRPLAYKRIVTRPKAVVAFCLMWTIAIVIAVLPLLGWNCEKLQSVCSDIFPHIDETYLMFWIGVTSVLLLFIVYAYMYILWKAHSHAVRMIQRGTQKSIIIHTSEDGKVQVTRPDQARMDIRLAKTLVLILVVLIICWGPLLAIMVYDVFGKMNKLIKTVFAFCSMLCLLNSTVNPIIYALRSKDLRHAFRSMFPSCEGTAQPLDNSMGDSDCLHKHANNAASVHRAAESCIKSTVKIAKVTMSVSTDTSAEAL
T2 sequence (P21554 whole entry): as above
T3 sequence (P21554 whole entry): as above
Chain of CB1 receptor (TRex-CHO CB1 cells) (P21554 whole entry): as above

Molecule	block of WIN55,212 induced ERK phosphorylation [1]	recognition of denatured CB1 protein [2]	effect on CP55,940-induced reduction in intracellular cAMP levels [3]	IC50 ([3]; all batches, 5 μM forskolin, 9 nM CP55,940, read-out: cAMP IC50 Mean ± SD) [nM]	effect on cAMP levels without exogenous agonist / mechanism [4]	inhibition of WIN55,212 induced CB1 receptor internalization [5]	binding to TRex-CHO CB1 cells [6]
B1	blocked	could not recognize denatured and linearized CB1 protein	dose-dependently inhibited	138 ± 21	inverse agonists	inhibited	
B2							dose dependently bound
B3	blocked				inverse agonists		
